This passage reports pKa results from PMC4159317.

Marks after values point to notes of the source that are not given here.

One data set deals with Glu28. Description: NMR. The settings on record: 25 °C, not stated for the titration samples, folded, more structured form (MSF), signals were lost above pH 6.4 because the population of the structured form is low there.
The test system of a further data set is Glu83. The data set is described as follows: NMR. The settings on record: 25 °C, not stated for the titration samples, folded, more structured form (MSF), signals were lost above pH 6.4 because the population of the structured form is low there.
The subject of the next data set is Glu105. Description: NMR. The conditions noted are these: 25 °C, not stated for the titration samples, folded, more structured form (MSF), signals were lost above pH 6.4 because the population of the structured form is low there.
For the next data set, the system named is Glu87. Description: NMR. The conditions noted are these: 25 °C, not stated for the titration samples, folded, more structured form (MSF), signals were lost above pH 6.4 because the population of the structured form is low there.
For data set [1], the system named is Glu107. Description: NMR. The settings on record: 25 °C, not stated for the titration samples, folded, more structured form (MSF), signals were lost above pH 6.4 because the population of the structured form is low there.
For the next data set, the system named is Glu38. Description: NMR. The settings on record: 25 °C, not stated for the titration samples, folded, more structured form (MSF), signals were lost above pH 6.4 because the population of the structured form is low there.
A further data set has as its system Glu63. The data set is described as follows: NMR. The settings on record: 25 °C, not stated for the titration samples, folded, more structured form (MSF), signals were lost above pH 6.4 because the population of the structured form is low there.
Another data set has as its system Glu104. The data set is described as follows: NMR. The settings on record: 25 °C, not stated for the titration samples, folded, more structured form (MSF), signals were lost above pH 6.4 because the population of the structured form is low there.
In another data set the test system is Glu68. Description: NMR. The settings on record: 25 °C, not stated for the titration samples, folded, more structured form (MSF), signals were lost above pH 6.4 because the population of the structured form is low there.
For data set [2], the system named is Glu107. The data set is described as follows: other (circular dichroism). The settings on record: 25 °C; 50 mM NaCl; none stated; 30 µM protein in 50 mM NaCl titrated with 0.05-0.1 M HCl or NaOH; transition between the more structured form (MSF) and the less structured form (LSF) of the double mutant.

In the case of “DraK histidine kinase, extracellular sensor domain (ESD), wild type (Streptomyces coelicolor A3(2))”, the pKa (as a rule, the pH at which an ionisable group is half protonated) in the data set on Glu28 is given as 3.9; in the data set on Glu83 it was 5.3; in the data set with Glu105, 5.5; in the data set with Glu87, 3.7; in the data set on Glu107 [1] it was “above 6.4”; in the data set on Glu38, 4.3. Also, the pKa is 4.5 in the data set on Glu63, 4.6 in the data set on Glu104 and 4.5 in the data set with Glu68.

Turning to “DraK histidine kinase, extracellular sensor domain (ESD), E83L/E105L double mutant (Streptomyces coelicolor A3(2); E83L;E105L)”, the pKa in the data set on Glu107 [2] is listed as 8.1*.
